Laboratory results as given in paper doi:10.1101/2022.05.04.490607 (bioRxiv, 2022).

T1: recombinant 14-3-3ζ, P63104
T1 chain: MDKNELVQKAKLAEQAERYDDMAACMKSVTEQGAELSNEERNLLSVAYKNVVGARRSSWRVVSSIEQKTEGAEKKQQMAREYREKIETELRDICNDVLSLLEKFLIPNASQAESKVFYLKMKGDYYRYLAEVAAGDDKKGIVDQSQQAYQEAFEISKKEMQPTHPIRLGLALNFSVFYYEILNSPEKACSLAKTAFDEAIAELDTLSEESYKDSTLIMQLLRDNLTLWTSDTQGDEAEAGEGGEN


Assays:
[1] = biological target: T1, recombinant 14-3-3ζ, P63104; assay: cryo-EM structure; conditions: remark: other sources report otherwise
[2] = biological target: HSP90 beta (full-length human, N-terminal HA tag) (human, UniProt P08238 1-724, phosphorylated (sites in Table S1)); assay: SEC-MALS
Chain of HSP90 beta (full-length human, N-terminal HA tag) (P08238 whole entry): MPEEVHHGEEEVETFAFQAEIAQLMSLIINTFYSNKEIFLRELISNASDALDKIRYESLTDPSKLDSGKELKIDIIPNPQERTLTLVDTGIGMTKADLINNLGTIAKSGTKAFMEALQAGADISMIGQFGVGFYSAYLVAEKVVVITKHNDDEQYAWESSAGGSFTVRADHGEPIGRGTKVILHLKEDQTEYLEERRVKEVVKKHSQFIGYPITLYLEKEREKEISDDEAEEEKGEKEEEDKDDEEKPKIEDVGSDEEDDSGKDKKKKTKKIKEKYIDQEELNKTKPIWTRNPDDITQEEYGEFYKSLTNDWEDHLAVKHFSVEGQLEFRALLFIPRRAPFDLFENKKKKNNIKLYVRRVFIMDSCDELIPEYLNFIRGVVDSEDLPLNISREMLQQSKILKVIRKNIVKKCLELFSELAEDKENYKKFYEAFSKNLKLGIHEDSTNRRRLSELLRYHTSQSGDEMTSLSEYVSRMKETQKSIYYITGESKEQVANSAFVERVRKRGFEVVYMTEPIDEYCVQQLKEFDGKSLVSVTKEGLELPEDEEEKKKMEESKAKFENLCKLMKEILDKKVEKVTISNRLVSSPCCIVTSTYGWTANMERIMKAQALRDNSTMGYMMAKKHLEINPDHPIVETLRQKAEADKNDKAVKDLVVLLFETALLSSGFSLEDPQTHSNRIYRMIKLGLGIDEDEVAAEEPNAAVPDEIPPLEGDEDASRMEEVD

| stoichiometry N [1] | binding result [2] | Binder |
| --- | --- | --- |
| 2 | – | recombinant 14-3-3ζ, P63104 1-245 (natural protein) MDKNELVQKAKLAEQAERYDDMAACMKSVTEQGAELSNEERNLLSVAYKNVVGARRSSWRVVSSIEQKTEGAEKKQQMAREYREKIETELRDICNDVLSLLEKFLIPNASQAESKVFYLKMKGDYYRYLAEVAAGDDKKGIVDQSQQAYQEAFEISKKEMQPTHPIRLGLALNFSVFYYEILNSPEKACSLAKTAFDEAIAELDTLSEESYKDSTLIMQLLRDNLTLWTSDTQGDEAEAGEGGEN |
| – | binds | CDC37 (full-length human, C-terminal Myc-DDK tag) (natural protein, phosphoserine at S13 (seen in the cryo-EM map; further sites in Table S1)) MVDYSVWDHIEVSDDEDETHPNIDTASLFRWRHQARVERMEQFQKEKEELDRGCRECKRKVAECQRKLKELEVAEGGKAELERLQAEAQQLRKEERSWEQKLEEMRKKEKSMPWNVDTLSKDGFSKSMVNTKPEKTEEDSEEVREQKHKTFVEKYEKQIKHFGMLRRWDDSQKYLSDNVHLVCEETANYLVIWCIDLEVEEKCALMEQVAHQTIVMQFILELAKSLKVDPRACFRQFFTKIKTADRQYMEGFNDELEAFKERVRGRAKLRIEKAMKEYEEEERKKRLGPGGLDPVEVYESLPEELQKCFDVKDVQMLQDAISKMDPTDAKYHMQRCIDSGLWVPNSKASEAKEGEEAGPGDPLLEAVPKTGDEKDVSV |
